System: human PRLR in HEK293/hPRLR/STAT5-Luc cells
Experiment: STAT5-Luc reporter assay, blocking of PRL-mediated receptor activation (5 nM PRL)
Type: cell-based
Conditions: read-out: IC50 of Blocking 5 nM PRL; 5 nM constant PRL, 6 hr at 37° C.
Text: The ability of anti-PRLR antibodies to block prolactin (PRL)-mediated receptor activation was examined in a luciferase-based reporter assay. The endocrine hormone PRL binds to the extracellular domain of its cognate receptor PRLR, triggering rapid homodimerization and activating several downstream signaling cascades.
In this example, an engineered cell line was used to determine the ability of anti-PRLR antibodies to block ligand activation of the PRLR receptor. Briefly, HEK293/hPRLR/STAT5-Luc cell lines with stable incorporation of a human PRLR expression cassette and the STAT5-dependent luciferase reporter were generated via sequential rounds of Lipofectamine® 2000-mediated transfection (LifeTechnologies, Carlsbad, Calif.). Cells were selected for at least two weeks in the presence of 500 μg/mL G418 (hPRLR) and 100 μg/mL hygromycin B (STAT5-Luc). The STAT5-Luc assay utilized 2×10^5 HEK293/hPRLR/STAT5-Luc cells seeded in complete growth medium on PDL-coated 96 well plates grown overnight at 37° C., 5% CO2. To generate antibody inhibition curves, cells were incubated (6 hr at 37° C.) with serially diluted anti-human PRLR antibodies (100 nM to 24 pM) in the presence of 5 nM constant PRL before recording signal. PRL dose response curves were generated by the addition of serially diluted PRL (100 nM to 24 pM) to cells and recording signal after a 6 hr (37° C.) incubation in the absence of antibodies. The ability of the antibodies to activate PRLR in the absence of ligand was also assessed.
Luciferase activity was measured with ONE-Glo™ reagent (Promega, Madison, Wis.). Relative light units (RLUs) were measured on a Victor luminometer (Perkin Elmer, Shelton, Conn.). EC50/IC50 values were determined from a four-parameter logistic equation over an 8-point response curve using GraphPad Prism. Percent blocking and percent activation are reported for the highest antibody dose.

Molecule	IC50 [nM]
H1H6797P: fully human anti-PRLR antibody, human IgG1 Fc; HCVR/LCVR SEQ ID NOs 178/186 (antibody, V domains shown) VH: EVQLVESGGGLVQPGGSLRLSCIVSGFTFSGSWMSWVRQLPGKGLEWVANIKEDGSDSYYVDSVEGRFTISRDNAKSSLYLQMNSLRVDDTAVYFCARARTVPLHYWGQGTLVTVSS VL: DIQMTQSPSTLSASVGDRVTITCRASQSINIWLAWYQQKPGKAPKLLIYRASYLESGVPSSFAGGGSGTEFTLTISSLQPDDFGTYYCQHYNSYPFTFGQGTKLEIK	> 100
H1H6795P: fully human anti-PRLR antibody, human IgG1 Fc; HCVR/LCVR SEQ ID NOs 162/170 (antibody, V domains shown) VH: QVQLVQSGAEVKKPGASVKVSCKASGYTFGTSGITWVRQAPGQGLEWMGWSSAYNGKTDYAQKFQDRVTMTTDTSTTTGYMEMRSLTSDDTAVYYCTTVVRRPFDFWGQGTLVTVSS VL: DIQMTQSPSSLSASVGDRVTITCRASQDINNFLAWFQQKPGKAPKSLIYAASSLQSGVPSKFSGGGSGTDFALTISSLQPEDFATYYCQQYSSYPITFGQGTRLEIK	> 100
H1H6774P: fully human anti-PRLR antibody, human IgG1 Fc; HCVR/LCVR SEQ ID NOs 34/42 (antibody, V domains shown) VH: EVQLVESGGGLAQPGGSLRLSCVASGFTFSTYWMSWVRQAPGKGLDWVGNIKQDGSEQNYVDSVRGRFTISRDNAKNSLFLQMNSLRAEDTGVYYCATLLTKGDYWGQGTLVTVSS VL: DIQMTQSPSSLSASVGDSVTITCRASQDISNYLDWFQQKPGKAPKSLIYAASILQGGVPSRFSGSGYGTDFTLTISSLQPEDFATYYCRQYKTYPFTFGPGTKVDIK	> 100
